B1: Notch homolog 2 N-terminal-like protein A (Homo sapiens), Q7Z3S9 (parent)
chain: MCVTYHNGTGYCKCPEGFLGEYCQHRDPCEKNRCQNGGTCVAQAMLGKATCRCASGFTGEDCQYSTSHPCFVSRPCLNGGTCHMLSRDTYECTCQVGFTGKECQWTDACLSHPCANGSTCTTVANQFSCKCLTGFTGQKCETDVNECDIPGHCQHGGTCLNLPGSYQCQCLQGFTGQYCDSLYVPCAPSPCVNGGTCRQTGDFTFECNCLPETVRRGTELWERDREVWNGKEHDEN
partner: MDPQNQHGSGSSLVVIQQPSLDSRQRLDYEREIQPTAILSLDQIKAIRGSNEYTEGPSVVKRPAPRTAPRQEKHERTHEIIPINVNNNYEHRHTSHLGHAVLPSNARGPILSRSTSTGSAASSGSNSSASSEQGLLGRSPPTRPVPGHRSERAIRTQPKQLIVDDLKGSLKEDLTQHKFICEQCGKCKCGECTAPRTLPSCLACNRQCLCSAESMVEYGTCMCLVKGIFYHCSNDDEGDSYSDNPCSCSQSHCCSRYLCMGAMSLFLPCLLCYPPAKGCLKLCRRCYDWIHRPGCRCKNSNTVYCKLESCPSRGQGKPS
B2: G patch domain and ankyrin repeat-containing protein 1 (Homo sapiens), O95872 (parent)
chain: MSRPLLITFTPATDPSDLWKDGQQQPQPEKPESTLDGAAARAFYEALIGDESSAPDSQRSQTEPARERKRKKRRIMKAPAAEAVAEGASGRHGQGRSLEAEDKMTHRILRAAQEGDLPELRRLLEPHEAGGAGGNINARDAFWWTPLMCAARAGQGAAVSYLLGRGAAWVGVCELSGRDAAQLAEEAGFPEVARMVRESHGETRSPENRSPTPSLQYCENCDTHFQDSNHRTSTAHLLSLSQGPQPPNLPLGVPISSPGFKLLLRGGWEPGMGLGPRGEGRANPIPTVLKRDQEGLGYRSAPQPRVTHFPAWDTRAVAGRERPPRVATLSWREERRREEKDRAWERDLRTYMNLEF
partner: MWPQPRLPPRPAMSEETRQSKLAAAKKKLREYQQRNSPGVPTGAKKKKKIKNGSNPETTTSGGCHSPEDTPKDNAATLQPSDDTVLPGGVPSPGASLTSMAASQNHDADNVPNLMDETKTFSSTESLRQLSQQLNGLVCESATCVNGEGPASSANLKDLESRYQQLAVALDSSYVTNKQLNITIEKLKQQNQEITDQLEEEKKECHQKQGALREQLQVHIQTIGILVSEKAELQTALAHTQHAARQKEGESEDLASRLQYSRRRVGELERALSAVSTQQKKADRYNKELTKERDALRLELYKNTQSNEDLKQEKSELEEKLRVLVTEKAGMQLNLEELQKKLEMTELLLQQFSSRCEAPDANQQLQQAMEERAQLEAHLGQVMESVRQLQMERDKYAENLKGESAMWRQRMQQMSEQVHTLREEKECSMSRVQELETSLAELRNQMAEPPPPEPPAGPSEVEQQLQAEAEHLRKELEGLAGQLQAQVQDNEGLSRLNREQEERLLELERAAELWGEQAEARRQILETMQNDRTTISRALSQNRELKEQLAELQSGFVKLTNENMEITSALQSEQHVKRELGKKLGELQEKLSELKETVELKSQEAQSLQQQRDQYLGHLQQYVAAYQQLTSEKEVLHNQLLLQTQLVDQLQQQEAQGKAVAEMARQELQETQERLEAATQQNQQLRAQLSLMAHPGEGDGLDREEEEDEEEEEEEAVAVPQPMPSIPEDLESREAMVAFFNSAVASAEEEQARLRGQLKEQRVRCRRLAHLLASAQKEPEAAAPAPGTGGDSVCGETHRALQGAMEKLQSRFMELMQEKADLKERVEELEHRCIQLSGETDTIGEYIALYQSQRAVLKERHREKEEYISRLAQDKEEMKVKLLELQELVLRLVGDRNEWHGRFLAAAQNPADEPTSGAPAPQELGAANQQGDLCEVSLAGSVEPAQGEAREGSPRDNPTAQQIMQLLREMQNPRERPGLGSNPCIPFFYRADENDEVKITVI
B3: Vasculin (Homo sapiens), Q86WP2 (parent)
chain: MAQHDFAPAWLNFPTPPSSTKSSLNFEKHSENFAWTENRYDVNRRRHNSSDGFDSAIGRPNGGNFGRKEKNGWRTHGRNGTENINHRGGYHGGSSRSRSSIFHAGKSQGLHENNIPDNETGRKEDKRERKQFEAEDFPSLNPEYEREPNHNKSLAAGVWEYPPNPKSRAPRMLVIKKGNTKDLQLSGFPVVGNLPSQPVKNGTGPSVYKGLVPKPAAPPTKPTQWKSQTKENKVGTSFPHESTFGVGNFNAFKSTAKNFSPSTNSVKECNRSNSSSPVDKLNQQPRLTKLTRMRTDKKSEFLKALKRDRVEEEHEDESRAGSEKDDDSFNLHNSNSTHQERDINRNFDENEIPQENGNASVISQQIIRSSTFPQTDVLSSSLEAEHRLLKEMGWQEDSENDETCAPLTEDEMREFQVISEQLQKNGLRKNGILKNGLICDFKFGPWKNSTFKPTTENDDTETSSSDTSDDDDV
partner: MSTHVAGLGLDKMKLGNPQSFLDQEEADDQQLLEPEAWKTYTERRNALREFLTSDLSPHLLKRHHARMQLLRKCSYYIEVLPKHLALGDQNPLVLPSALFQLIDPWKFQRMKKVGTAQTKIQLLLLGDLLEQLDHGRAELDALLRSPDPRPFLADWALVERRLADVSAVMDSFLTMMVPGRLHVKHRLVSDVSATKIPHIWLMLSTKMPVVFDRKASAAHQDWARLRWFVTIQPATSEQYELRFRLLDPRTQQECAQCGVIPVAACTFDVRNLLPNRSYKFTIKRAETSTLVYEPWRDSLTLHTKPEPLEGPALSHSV
B4: Protein LDOC1 (Homo sapiens), O95751 (parent)
chain: MVDELVLLLHALLMRHRALSIENSQLMEQLRLLVCERASLLRQVRPPSCPVPFPETFNGESSRLPEFIVQTASYMLVNENRFCNDAMKVAFLISLLTGEAEEWVVPYIEMDSPILGDYRAFLDEMKQCFGWDDDEDDDDEEEEDDY
partner: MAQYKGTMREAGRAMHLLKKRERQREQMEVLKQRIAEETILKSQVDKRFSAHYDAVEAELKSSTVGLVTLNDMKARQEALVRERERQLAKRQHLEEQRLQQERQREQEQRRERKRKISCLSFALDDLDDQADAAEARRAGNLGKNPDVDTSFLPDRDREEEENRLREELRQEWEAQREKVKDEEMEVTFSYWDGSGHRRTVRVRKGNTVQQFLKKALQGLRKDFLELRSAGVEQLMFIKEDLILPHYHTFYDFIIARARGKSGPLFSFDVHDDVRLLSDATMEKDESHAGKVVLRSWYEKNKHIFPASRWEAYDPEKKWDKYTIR
B5: Pre-mRNA-splicing factor SPF27 (Homo sapiens), O75934 (parent)
chain: MAGTGLVAGEVVVDALPYFDQGYEAPGVREAAAALVEEETRRYRPTKNYLSYLTAPDYSAFETDIMRNEFERLAARQPIELLSMKRYELPAPSSGQKNDITAWQECVNNSMAQLEHQAVRIENLELMSQHGCNAWKVYNENLVHMIEHAQKELQKLRKHIQDLNWQRKNMQLTAGSKLREMESNWVSLVSKNYEIERTIVQLENEIYQIKQQHGEANKENIRQDF
partner: B2 partner
B6: Microtubule-associated tumor suppressor candidate 2 (Homo sapiens), Q5JR59-3 (parent)
chain: MGHCCCKPYNCLQCLDKTNESALVKEKELSIELANIRDEVAFHTAKCEKLQKEKEELERRFEDEVKRLGWQQQAELQELEERLQLQFEAEMARLQEEHGDQLLSIRCQHQEQVEDLTASHDAALLEMENNHTVAITILQDDHDHKVQELMSTHELEKKELEENFEKLRLSLQDQVDTLTFQSQSLRDRARRFEEALRKNTEEQLEIALAPYQHLEEDMKSLKQVLEMKNQQIHEQEKKILELEKLAEKNIILEEKIQVLQQQNEDLKARIDQNTVVTRQLSEENANLQEYVEKETQEKKRLSRTNEELLWKLQTGDPTSPIKLSPTSPVYRGSSSGPSSPARVSTTPR
partner: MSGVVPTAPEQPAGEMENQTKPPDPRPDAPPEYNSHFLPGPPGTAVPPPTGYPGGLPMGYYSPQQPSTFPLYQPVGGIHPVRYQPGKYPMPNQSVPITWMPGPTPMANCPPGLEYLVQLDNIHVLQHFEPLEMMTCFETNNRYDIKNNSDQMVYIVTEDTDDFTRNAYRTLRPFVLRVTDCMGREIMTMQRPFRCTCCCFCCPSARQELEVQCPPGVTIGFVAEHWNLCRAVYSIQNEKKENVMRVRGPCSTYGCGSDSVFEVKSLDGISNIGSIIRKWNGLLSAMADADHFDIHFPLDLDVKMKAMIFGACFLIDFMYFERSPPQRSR
B7: Outer dense fiber protein 1 (Homo sapiens), Q14990 (parent)
chain: MAALSCLLDSVRRDIKKVDRELRQLRCIDEFSTRCLCDLYMHPYCCCDLHPYPYCLCYSKRSRSCGLCDLYPCCLCDYKLYCLRPSLRSLERKAIRAIEDEKRELAKLRRTTNRILASSCCSSNILGSVNVCGFEPDQVKVRVKDGKVCVSAERENRYDCLGSKKYSYMNICKEFSLPPCVDEKDVTYSYGLGSCVKIESPCYPCTSPCSPCSPCSPCNPCSPCNPCSPYDPCNPCYPCGSRFSCRKMIL
B8: Rab-like protein 2A (Homo sapiens), Q9UBK7 (parent)
chain: MAEDKTKPSELDQGKYDADDNVKIICLGDSAVGKSKLMERFLMDGFQPQQLSTYALTLYKHTATVDGKTILVDFWDTAGQERFQSMHASYYHKAHACIMVFDIQRKVTYRNLSTWYTELREFRPEIPCIVVANKIDDINVTQKSFNFAKKFSLPLYFVSAADGTNVVKLFNDAIRLAVSYKQNSQDFMDEIFQELENFSLEQEEEDVPDQEQSSSIETPSEEVASPHS
partner: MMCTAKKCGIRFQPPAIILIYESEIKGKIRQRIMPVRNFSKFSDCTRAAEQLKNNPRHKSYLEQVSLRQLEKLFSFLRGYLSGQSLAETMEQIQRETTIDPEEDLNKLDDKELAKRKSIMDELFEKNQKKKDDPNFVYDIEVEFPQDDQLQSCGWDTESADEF

Variants of: B1
Settings: with spy1_human SPRY1, O43609

| effect of a mutation on the interaction | Variant |
| --- | --- |
| with no effect | A115T |

Variants of: B2
Settings: with goga2_human GOLGA2, Q08379

| effect of a mutation on the interaction | Variant |
| --- | --- |
| with no effect | R41L |

Variants of: B3
Settings: with fnd11_human FNDC11, Q9BVV2

| effect of a mutation on the interaction | Variant |
| --- | --- |
| with no effect | S449R |
| with no effect | T223A |

Variants of: B4
Settings: with fa50b_human FAM50B

| effect of a mutation on the interaction | Variant |
| --- | --- |
| disrupting interaction strength | L12H |

Variants of: B5
Settings: with goga2_human GOLGA2, Q08379

| effect of a mutation on the interaction | Variant |
| --- | --- |
| disrupting interaction strength | N139S |

Variants of: B6
Settings: with pls4_human PLSCR4, Q9NRQ2

| effect of a mutation on the interaction | Variant |
| --- | --- |
| with no effect | A89V |

Variants of: B7
Settings: with mtus2_human MTUS2, Q5JR59
Sequence of mtus2_human MTUS2, Q5JR59 (Q5JR59 whole entry): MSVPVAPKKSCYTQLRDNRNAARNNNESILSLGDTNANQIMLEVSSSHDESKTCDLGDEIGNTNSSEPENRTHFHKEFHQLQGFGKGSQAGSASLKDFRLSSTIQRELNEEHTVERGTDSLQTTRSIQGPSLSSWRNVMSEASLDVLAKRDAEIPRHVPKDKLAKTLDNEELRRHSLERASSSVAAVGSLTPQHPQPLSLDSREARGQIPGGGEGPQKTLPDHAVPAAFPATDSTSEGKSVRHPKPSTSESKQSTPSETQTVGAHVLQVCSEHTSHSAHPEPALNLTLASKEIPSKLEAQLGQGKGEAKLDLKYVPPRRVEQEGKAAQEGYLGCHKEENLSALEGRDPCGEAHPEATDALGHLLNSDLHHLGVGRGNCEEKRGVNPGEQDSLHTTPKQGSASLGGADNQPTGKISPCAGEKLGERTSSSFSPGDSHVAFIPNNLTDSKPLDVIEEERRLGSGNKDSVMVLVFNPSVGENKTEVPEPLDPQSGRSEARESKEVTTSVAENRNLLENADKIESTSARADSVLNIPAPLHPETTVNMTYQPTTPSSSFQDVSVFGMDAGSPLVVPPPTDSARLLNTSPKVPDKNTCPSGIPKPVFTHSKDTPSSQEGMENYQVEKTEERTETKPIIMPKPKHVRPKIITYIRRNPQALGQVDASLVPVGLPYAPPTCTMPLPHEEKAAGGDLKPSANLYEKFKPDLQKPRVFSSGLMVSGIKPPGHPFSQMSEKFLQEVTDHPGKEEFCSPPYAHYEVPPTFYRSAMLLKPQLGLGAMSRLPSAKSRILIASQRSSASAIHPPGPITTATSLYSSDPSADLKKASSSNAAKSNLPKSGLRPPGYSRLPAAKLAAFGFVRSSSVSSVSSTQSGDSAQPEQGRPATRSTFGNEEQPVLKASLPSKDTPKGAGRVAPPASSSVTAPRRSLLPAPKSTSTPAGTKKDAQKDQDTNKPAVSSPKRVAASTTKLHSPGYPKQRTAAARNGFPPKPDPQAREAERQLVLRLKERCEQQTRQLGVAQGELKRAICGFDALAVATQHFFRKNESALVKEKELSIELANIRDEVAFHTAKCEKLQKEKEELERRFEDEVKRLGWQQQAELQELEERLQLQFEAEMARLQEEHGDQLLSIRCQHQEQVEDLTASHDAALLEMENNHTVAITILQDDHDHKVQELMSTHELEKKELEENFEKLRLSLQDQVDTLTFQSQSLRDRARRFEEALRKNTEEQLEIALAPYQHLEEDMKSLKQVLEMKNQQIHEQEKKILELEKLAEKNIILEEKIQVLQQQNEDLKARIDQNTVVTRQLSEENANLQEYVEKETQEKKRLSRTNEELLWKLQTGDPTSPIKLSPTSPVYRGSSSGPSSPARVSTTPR

| effect of a mutation on the interaction | Variant |
| --- | --- |
| with no effect | K17N |
| with no effect | S89I |

Variants of: B8
Settings: with cep19_human CEP19, Q96LK0

| effect of a mutation on the interaction | Variant |
| --- | --- |
| with no effect | T53M |
| with no effect | A94T |

From IntAct's records for PubMed 31515488
